Experimental findings from patent US20110014209A1 (MACFARLANE BURNET INSTITUTE FOR MEDICAL RESEARCH AND PUBLIC …, published 2011) are described below.

B1: E2-his mature protein (wild type, residues 384-661, strain H77c) (other)
chain: ETHVTGGNAGRTTAGLVGLLTPGAKQNIQLINTNGSWHINSTALNCNESLNTGWLAGLFYQHKFNSSGCPERLASCRRLTDFAQGWGPISYANGSGLDERPYCWHYPPRPCGIVPAKSVCGPVYCFTPSPVVVGTTDRSGAPTYSWGANDTDVFVLNNTRPPLGNWFGCTWMNSTGFTKVCGAPPCVIGGVGNNTLLCPTDCFRKHPEATYSRCGSGPWITPRCMVDYPYRLWHYPCTINYTIFKVRMYVGGVEHRLEAACNWTRGERCDLEDRDRSEHHHHHH
B2: CD81 MBP-LEL containing the F186S mutation (receptor)
chain: FVNKDQIAKDVKQFYDQALQQAVVDDDANNAKAVVKTFHETLDCCGSSTLTALTTSVLKNNLCPSGSNIISNLSKEDCHQKIDDLFSGK
B3: E2Δ3-his mature protein (other)
chain: ETHVTGGNAGRTTAGLVGLLTPGAKQNIQLINTNGSWHINSTALNCNESLNTGWLAGLFYQHKFNSSGCPERLASCRRLTDFAQGWGPISYANGSGLDERPYCWHYPPRPCGIVPAKSVCGPVYCFTPSPVVVGTTDRSGAPTYSWGANDTDVFVLNNTRPPLGNWFGCTWMNSTGFTKVCGAPPCGSSGCPTDCFRKHPEATYSRCGSGPWITPRCMVDYPYRLWHYPCTINYTIFKVRMYVGGVEHRLEAACNWTRGERCDLEDRDRSEHHHHHH
B4: E2Δ23-his mature protein (other)
chain: ETHVTGGNAGRTTAGLVGLLTPGAKQNIQLINTNGSWHINSTALNCNESLNTGWLAGLFYQHKFNSSGCPERLASCGSSGCWHYPPRPCGIVPAKSVCGPVYCFTPSPVVVGTTDRSGAPTYSWGANDTDVFVLNNTRPPLGNWFGCTWMNSTGFTKVCGAPPCGSSGCPTDCFRKHPEATYSRCGSGPWITPRCMVDYPYRLWHYPCTINYTIFKVRMYVGGVEHRLEAACNWTRGERCDLEDRDRSEHHHHHH
B5: E2 glycoprotein expressed from pE1E2 Δ23 (HVR2 and igVR deletions) (other)
chain: ETHVTGGNAGRTTAGLVGLLTPGAKQNIQLINTNGSWHINSTALNCNESLNTGWLAGLFYQHKFNSSGCPERLASCGSSGCWHYPPRPCGIVPAKSVCGPVYCFTPSPVVVGTTDRSGAPTYSWGANDTDVFVLNNTRPPLGNWFGCTWMNSTGFTKVCGAPPCGSSGCPTDCFRKHPEATYSRCGSGPWITPRCMVDYPYRLWHYPCTINYTIFKVRMYVGGVEHRLEAACNWTRGERCDLEDRDRSELSPLLLSTTQWQVLPCSFTTLPALSTGLIHLHQNIVDVQYLYGVGSSIASWAIKWEYVVLLFLLLADARVCSCLWMMLLISQAEA
notes: also called HVR2+igVR
B6: E2Δ2-his mature protein (other)
chain: ETHVTGGNAGRTTAGLVGLLTPGAKQNIQLINTNGSWHINSTALNCNESLNTGWLAGLFYQHKFNSSGCPERLASCGSSGCWHYPPRPCGIVPAKSVCGPVYCFTPSPVVVGTTDRSGAPTYSWGANDTDVFVLNNTRPPLGNWFGCTWMNSTGFTKVCGAPPCVIGGVGNNTLLCPTDCFRKHPEATYSRCGSGPWITPRCMVDYPYRLWHYPCTINYTIFKVRMYVGGVEHRLEAACNWTRGERCDLEDRDRSEHHHHHH

Assay [1] has as its target B2. Briefly: MBP-LEL ELISA, H53 detection. A general note: An ELISA detects its analyte on a solid surface through an enzyme-linked reagent.
For assay [2], the target named is T1, CD81 MBP-LEL (maltose-binding protein fused to the CD81 large extracellular loop, residues 113-201) (human, UniProt P60033 113-201).
T1 construct: range 113-201
T1 sequence: B2 chain with S74F
Briefly: CD81 MBP-LEL ELISA, purified E2-his proteins, H53 detection.

Assay [3] addresses E2Δ12-his mature protein (hepatitis C virus H77c, UniProt P27958 409-661). Briefly: MBP-LEL ELISA, H53 detection.
Assay [4] deals with T1, CD81 MBP-LEL (maltose-binding protein …). In words: CD81 MBP-LEL solid-phase assay, intracellular E2.

Where a chain is given by its changes, count along the chain named. Names may count otherwise.

Take B1: the values for the binding result in assay [1] and in assay [2] were “no binding” and “binds”, respectively.

With B2, the binding result in assay [3] is reported as “no binding”. As to B3, the binding result is “no binding” in assay [1] and “binds” in assay [2]. For the molecule B4, the binding result in assay [1] is given as “no binding”; in assay [2], “binds”. B5: in assay [4], the binding result is “binds”. As to B6, the binding result in assay [1] is recorded as “no binding”.
